Measurements reported in patent US20250074957A1 (GENERAL HOSPITAL, published 2025).

B1: minCRBN3-NLuc (other, not shown: large carriers)
chain: AGEGDQQDAAHNMGNHLPLLPESEEEDEMEVEDQDSKEAKKPNIINFDTSLPTSHTYLGADMEEFHGRTLHDDDSCQVIPVLPQVMMILIPGQTLPLQLFHPQEVSMVRNLIQKDRTFAVLAYSNVQEREAQFGTTAEIYAYREEQDFGIEIVKVKAIGRQRFKVLELRTQSDGIQQAKVQILPECVLPSTYDAETLMDRIKKQLREWDENLKDDSLPSNPIDFSYRVAACLPIDDVLRIQLLKIGSAIQRLRCELDIMNKCTSLCCKQCQETEITTKNEIFSLSLCGPMAAYVNPHGYVHETLTVYKACNLNLIGRPSTEHSWFPGYAWTVAQCKICASHIGWKFTATKKDMSPQKFWGLTRSALLPTIPDTEDEISPDKVILCL
notes: also called CRBNΔ3; cytosolic (untethered) minCRBN
B2: CRBN (wild-type; endogenous in Jurkat/293T cells or re-expressed in 293T-CRBNΔe5 cells) (other)
chain: MAGEGDQQDAAHNMGNHLPLLPAESEEEDEMEVEDQDSKEAKKPNIINFDTSLPTSHTYLGADMEEFHGRTLHDDDSCQVIPVLPQVMMILIPGQTLPLQLFHPQEVSMVRNLIQKDRTFAVLAYSNVQEREAQFGTTAEIYAYREEQDFGIEIVKVKAIGRQRFKVLELRTQSDGIQQAKVQILPECVLPSTMSAVQLESLNKCQIFPSKPVSREDQCSYKWWQKYQKRKFHCANLTSWPRWLYSLYDAETLMDRIKKQLREWDENLKDDSLPSNPIDFSYRVAACLPIDDVLRIQLLKIGSAIQRLRCELDIMNKCTSLCCKQCQETEITTKNEIFSLSLCGPMAAYVNPHGYVHETLTVYKACNLNLIGRPSTEHSWFPGYAWTVAQCKICASHIGWKFTATKKDMSPQKFWGLTRSALLPTIPDTEDEISPDKVILCL
B3: CRBN-Nanoluciferase (NLuc) (other, not shown: large carriers)
chain: B2 chain
notes: Expressed inside transfected 293T cells for NanoBRET (intracellular, not on the surface); also called wild-type CRBN; wtCRBN
B4: IKZF3 degron polypeptide, amino acids 130-189 A153M (HaloTag fusion for BRET) (other, not shown: large carriers)
chain: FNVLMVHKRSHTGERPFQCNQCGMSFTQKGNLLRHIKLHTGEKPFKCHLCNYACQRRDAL
notes: also called IKZF3 A153M; A153M-substituted form of the IKZF3 degron

How the values were obtained:
IKZF3aa130-189-HaloTag = molecular target: T1, IKZF3aa130-189-HaloTag (Homo sapiens, UniProt A2VDW9 130-189 (bovine entry)); test: NanoBRET in 293T-CRBNΔe5 cells, pomalidomide dose-response; the Kd is a pomalidomide concentration
T1 construct: Expressed in transfected 293T cells for NanoBRET; labelled with HaloTag NanoBRET 618 ligand; also called IKZF3 degron; degron
Experimental: (§1) Cells were then trypsinized and seeded into 96 well plates, at 40,000 cells per well. The BRET assay was performed per manufacturer's instructions (Promega™). In brief, cells were incubated for 2 hours with varying concentrations of Pomalidomide or DMSO, 10 μM MG132, and 100 nM HaloTag NanoBRET 618 Ligand. NanoBRET Nano-Glo substrate was added and donor (460 nm) and acceptor (618 nm) emission were measured within 10 minutes (EnVision, Perkin Elmer). Mean corrected milliBRET units (mBU) was calculated.

CD28-IKZF3 (eGFP fusion) = test: cell-based or functional assay
[1] = molecular target: IKZF3 degron-eGFP fusion (IKZF3 degron-GFP-IRES-mCherry reporter) (Homo sapiens, UniProt A2VDW9 130-189 (bovine entry)); test: cell-based or functional assay
[2] = molecular target: CD28-CD3z-IKZF3 (eGFP fusion); test: cell-based or functional assay
[3] = molecular target: B3; test: NanoBRET across a range of pomalidomide concentrations
Experimental: as §1

T1 sequence (A2VDW9 130-189): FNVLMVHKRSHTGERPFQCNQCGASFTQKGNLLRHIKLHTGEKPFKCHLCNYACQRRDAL
IKZF3 degron-eGFP fusion (IKZF3 degron-GFP-IRES-mCherry reporter), sequence (A2VDW9 130-189): as above

Binder: B1
apparent Kd (pomalidomide-dependent dimerization) (IKZF3aa130-189-HaloTag): 30 nM

Binder: B2
EC50 of pomalidomide-dependent degradation (eGFP/mCherry ratio normalized to DMSO), Jurkat T cells (CD28-IKZF3 (eGFP fusion)): 23.5 nM
EC50 of pomalidomide-dependent degradation (eGFP/mCherry ratio normalized to DMSO), Jurkat T cells [1]: 0.42 nM
EC50 of pomalidomide-dependent degradation (eGFP/mCherry ratio normalized to DMSO), Jurkat T cells [2]: 8.2 nM

Binder: B3
apparent Kd (pomalidomide-dependent dimerization) (IKZF3aa130-189-HaloTag): 30 nM

Binder: B4
binding result [3]: binds
